Assay: yeast display, Sf9 membrane polyspecificity reagent, FACS + sequencing; frameworks hold sequencing errors
Summary of the method: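 Polyreactivity labels are assigned by the sorting gate from which each nanobody was recovered. The gates were low and high (top ~1%), set on anti-HA fluorescence for expression and streptavidin fluorescence for reagent binding. Before sorting, galactose-induced (36–48 hours) yeast display cells were stained for 1 hour at 4 °C with 10% biotinylated, detergent-solubilized Sf9 membrane reagent.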

Sequence	polyreactivity (PSR sort gate)
QVQLVESGGGLVQAGGSLRLSCAASGRILVRYAMGWYRQAPGKERELVAAISSSGSSTYYADSVKGRFTISRYNAKNTVYLQMNSLKPEDTAVYYCAADWEYVFYEYGYWGQGTQVTVSS	low polyreactivity
QVQLVESGGGLVQAGGSLRLSCAASGRILVSYARGWYRQAPGKERELVAGITSGGDSTYYADSVKGRFTISRDNAKNTVYLQMNSLKPADTAVYSCAADRYGYRGRKNVRERYNYWGQGTQVTVSS	high polyreactivity
QVQLVESGGGLVQAGGSLRLSCAASGRILVVNAMGWYRQAPGKERELVAAISTTGGRTYYADSVKGRFTISRDNAKNTDYLQMISLKPEDTAVYYCAKDDGRFGRTHEHDYWGHGTQVTVSS	high polyreactivity
QVQLVESGGGLVQAGGSLRLSCAASGRILVVNAMGWYRQAPRKERELVAAISTTGGRTYYADSVKGRFTISRDNAKNTVYLQMKSLKPEDTAVYYCSKDDGRFGRTHEHDYWGHGTQVTVSS	high polyreactivity
QVQLVESGGGLVQAGGSLRLSCAASGRILWTYAMGWYRQAPGKERELVADISRTGSTNYADSVKGRFTISRDNAKNTVYLQMNSLKPEDTAVYYCNADYDRSRVYYSVELYDYWGQGTQVTVSS	low polyreactivity
QVQLVESGGGLVQAGGSLRLSCAASGRILWYNAMGWYRQAPGKERELVAAINRGVSTNYADSVKGRFTISRDNAKNTVYLQMNSLKPEDTEVYYCAAVHDRLWYRSAYDYWRQGTQVTVSS	low polyreactivity
QVQLVESGGGLVQAGGSLRLSCAASGRILWYNAMGWYRQAPGKERELVAAITSDGSTDYADSVKGRFTISRDNAKNTVYLQMNSLKPEDTAVYYCAKLYIRQYPTWYRYYYWGQGTQVTVSS	high polyreactivity
QVQLVESGGGLVQAGGSLRLSCAASGRILYLYTMGWYRQAPGKERELVAAISRGGSTYYADSVKGRFTISRDNAKNTVYLQMNSLKPEDTAVYSCAADARGYQFNYWGQGTQVTVSS	low polyreactivity
QVQLVESGGGLVQAGGSLRLSCAASGRILYPYAMGWYRQAPGKERELVAAITFIGGTTYYADSVKGRFTLSRDNAKNTLYLQRNSLKQEDTAVYYCSTAGPYGSRNDYWGQGTQVTVSS	high polyreactivity
QVQLVESGGGLVQAGGSLRLSCAASGRILYQYDMGWYRQAPGKERELVASISRSGGRTYYADSVKGRFTISRDNAKNTVYLQMNSLNPEDTAVYYCAAELTYFGYPIDFDSWGQGTQVSVSS	low polyreactivity
QVQLVESGGGLVQAGGSLRLSCAASGRILYRYVMGWYRQAPGKERELVAGISWSGGSTYYADSVKGRFTISRDNAKNTVYLQMNSLNPEDTAVYYCNKYIGALGRWGYDYWGQGTQVTVSS	low polyreactivity
QVQLVESGGGLVQAGGSLRLSCAASGRILYSYAMGWYRQAPGKERELVAAISSTGSTYYADSVKGRFTISRDNAKNTVYLQMNSLKPEDTAVYYCAATFFPYQVHHYYYWGQGTQVTVSS	low polyreactivity
QVQLVESGGGLVQAGGSLRLSCAASGRILYVYVMGWYRQGPGKASELVAAISRRGGGTSYADSVKGLFTISRDNAKNTVYLQLNSLKPEDTTVYYCAASSTEFPTDYLAIDDYWGQGTQVTVSS	low polyreactivity
QVQLVESGGGLVQAGGSLRLSCAASGRILYYYAMGWYRQAPGKERELVAAINSSGGSTYYADSVKGRFTISRDNAKNTVYLQMNSLKPEDTAVYYCAALRGIVLWYPPSYFRYDYWGQGTQVTVSS	high polyreactivity
QVQLVESGGGLVQAGGSLRLSCAASGRILYYYAMGWYRQAPGKERELVAAINSSGGSTYYADSVKGRFTISRDNAKNTVYLQMNSLKPEDTAVYYCAALRGNVLWYPPSYFRYDYWGQGTQVTVSS	high polyreactivity
QVQLVESGGGLVQAGGSLRLSCAASGRIMPFYAMGWYRQAPGKERELVATISWTSDSTYYADSVKGRFTISRDNAKNTVFLQMNSLKPEDTAVYYCAREYTYTYASTVIYDHWGQGTQVTVSS	low polyreactivity

Sequence	polyreactivity (PSR sort gate)
QVQLVESGGGLVQAGGSLRLSCAASGRINEYYAMGWYRQAPGKERELVAAISSGGSTYYADSVKGRFTISRDNAKNTVYFQMNSLKPEDTAVYYCAAVYSSYGRRYNSWGQGTQVTVSS	high polyreactivity
QVQLVESGGGLVQAGGSLRLSCAASGRIRGNVMGWYRQAPGKERELVAAISKSGGSTYYADSVKGRFTISRDNAKNTVYLQMNSLKPEDTAVYYCAAAYGQYTSYYRFGSWGQGTQVTVSS	high polyreactivity
QVQLVESGGGLVQAGGSLRLSCAASGRISGVNAMGWYRQAPGKERELVATISGSGGRTYYADSVKGRFTISRDNAKNTVYLQMNSLKPEDTAVYYCNTLVQRGGYFSRRFDYWGQGTQVTVSS	low polyreactivity
QVQLVESGGGLVQAGGSLRLSCAASGRISGYNMGWYRQAPGKERELVAAISNGGSTNYADSVKGRFTISRDNAKNTVYLQMNSLKPEDTAVYYCNRRVPYSFYSRGYYYWGQGTQVTVSS	high polyreactivity
QVQLVESGGGLVQAGGSLRLSCAASGRISPKNAMGWYRQAPGKERELVATIRKIGGRTYYADSVKGRFTISRDNAKNTVYLQMNSLKPEDTAVYYCATDFAPSYYPDRFDYRGQGTQVTVSS	low polyreactivity
QVQLVESGGGLVQAGGSLRLSCAASGRISPKNAMGWYRQAPGKERELVATIRKIGGRTYYADSVKGRFTISRDNAKNTVYLQMNSLKPEDTAVYYCATDFAPSYYPDRFDYWGQGTQVTVSW	low polyreactivity
QVQLVESGGGLVQAGGSLRLSCAASGRISPKNAMGWYRQAPGKERELVATIRKIGGRTYYADSVKGRFTISRDNAKNTVYLQMNSLKPEDTAVYYCATDFAQSYYPDRFDYWGQGTQVTVSS	low polyreactivity
QVQLVESGGGLVQAGGSLRLSCAASGRISRFYAMGWYRQAPGKERELVAGIRSGDSTNYADSVKGRFTISRDNAKNTVYLQMNSLKPEDTAVYYCAAVVFSDGRYGRANRMYYWGQGTQVTVSS	high polyreactivity
QVQLVESGGGLVQAGGSLRLSCAASGRISRGNAMGWYRHAPGKEREFVAAISWSGDGTYYADSVKGRFTISRDNAKNTVYLQMNSLKPEDTAVYYCADGATPRYSKYDYWGQGTQGTVSS	low polyreactivity
QVQLVESGGGLVQAGGSLRLSCAASGRISRIYAMGWYRQAPGKERELVAAIRGRGGSTYYADSVKGRFTISRDNAKNTVYLQMNSLKPEVTAVYYCAADGWARYEYWGQGTQVTVSS	high polyreactivity
QVQLVESGGGLVQAGGSLRLSCAASGRISRNYAMGWYRQAPGKERELVAAINRGGSTYYADSVKGRFTISRDNAKNTVYLQMNSLKPEDTAVYYCAARYPNQYDYWGQGTQVTVSS	high polyreactivity
QVQLVESGGGLVQAGGSLRLSCAASGRISRSNTMGWYRQAPGKERELVAAISRGGGSTYYADSVKGRFTISRDNAKNTVYLQMKSLKPEDTAVYYCAKRSAITGYEYWGQGTQVTVSS	high polyreactivity
QVQLVESGGGLVQAGGSLRLSCAASGRISSVYAMGLYRQAPGKERELVAGITWSDARTYYADSVKGRFTISRDNAKNTVYLQMNSLKPEDTAVYYCAADYYYYERDYWGQGTQVTVSS	low polyreactivity
QVQLVESGGGLVQAGGSLRLSCAASGRISVANAMGWYIQAPGKERELVARISEGVGSTYYADSVKGRFTISRDTAKNTVYLQMNSLKPEDTAVYYCAAYQDYVYSESLFSVSARMYYWGQGTQVTVSS	low polyreactivity
QVQLVESGGGLVQAGGSLRLSCAASGRISVVNAMGWYRQAPGKERELVATINRGGSTYADSVKGRFTISRDNAKNTVYLQMNSLKPEDTAVYYCAARTFRISRMDYWGQGTQVTVSS	high polyreactivity
